Laboratory results published in doi:10.1101/2025.10.11.676729.

Target: Pyrococcus abyssi 70S ribosome (Pyrococcus abyssi (endogenous in P. abyssi)) (UniProt Q9V109)
Test: cryo-EM structure

UniProt Q9V109, sequence (Q9V109 whole entry, looked up): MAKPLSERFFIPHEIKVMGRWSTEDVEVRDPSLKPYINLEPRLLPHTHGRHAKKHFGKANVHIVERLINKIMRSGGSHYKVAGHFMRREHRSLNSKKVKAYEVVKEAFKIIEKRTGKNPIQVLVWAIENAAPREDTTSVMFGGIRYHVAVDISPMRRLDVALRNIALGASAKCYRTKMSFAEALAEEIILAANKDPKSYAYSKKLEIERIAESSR

percent of 70S particles that contained Hib: 51.6%
B1: Hib, endogenous, bound to ribosomes isolated from Pyrococcus abyssi cell extracts (natural protein)
chain: MVGIQVQEVMTDRYAKIDINAPLSEAIGIIEKEDPDLILVFDDNVYKGVLTQDLIIRSHLKWDPTKAKVRDVYKPAPVVKPTDDLSHAAKLLLETDLRSLPVGENKAEILGVISDMALLERVVAEEFGKRKVEEFMTKDVITLGPDDTVAKALATMRDHGISRIPVVDEEGKLEGLVTLHDLIIRFIKPRFKAQYGELAGEKIPPFSMKLREAMIKGVITIMPEATIREAVSTMKDNNIDGLVVVDENNKVVGILTVKDLLLPISRMVEKEARFYLQLGGDASALSEFTRERIINDIKRFVDGYADLLGNEGIIYLYIRRFNEKFRGVHLYQARMRVVTDRGVFIARGETWGAIQAVHDAIRAIERQLLQKAELERDIRYAKRFIEKLELWR
